Laboratory results published in PMC8185548.

Biological target: CD47 (mouse (endogenous in AB1 cells)) (UniProt Q61735)
Experiment: proximity ligation; fixed MM (AB1) cells on coverslips, resting (PBS) or treated overnight with 400 nM BoxA or 10 nM CXCL12; primary antibodies to CD47 together with anti-CXCR4, anti-RAGE or anti-TLR4; Duolink probes; confocal imaging, signal per cell quantified

Chain of UniProt Q61735 (Q61735 19-303): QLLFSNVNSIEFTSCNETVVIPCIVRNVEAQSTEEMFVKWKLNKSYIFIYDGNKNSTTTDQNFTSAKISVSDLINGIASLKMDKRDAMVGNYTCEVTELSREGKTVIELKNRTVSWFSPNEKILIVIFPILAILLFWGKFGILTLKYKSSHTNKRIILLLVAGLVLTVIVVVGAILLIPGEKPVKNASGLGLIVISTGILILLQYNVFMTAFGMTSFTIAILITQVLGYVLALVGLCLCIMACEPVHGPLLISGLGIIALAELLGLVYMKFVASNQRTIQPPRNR

PLA signal, fold lower than that of CD47 and CXCR4 (fold lower than CD47/CXCR4) | Substance
100 | RAGE (from UniProt Q62151 23-402) (receptor)
100 | TLR4 (from UniProt Q9QUK6 26-835) (receptor)
